Results published in patent US20110159009A1 (published 2011).
One block for each binder: values may come before it.

Key:
[1] = target: B20.4.1; experiment: SPR (BIAcore); FIG. 10; 37 C; ~60 RU VEGF immobilized; bivalent model
[2] = target: B20.4.1; experiment: SPR (BIAcore); FIG. 11; 37 C; ~1000 RU VEGF immobilized; 1:1 Langmuir model

- Kd [1]: 370 pM
- Kd [2]: 2260 pM
B1: mVEGF (ligand)
chain: APTTEGEQKSHEVIKFMDVYQRSYCRPIETLVDIFQEYPDEIEYIFKPSCVPLMRCAGCCNDEALECVPTSESNITMQIMRIKPHQSQHIGEMSFLQHSRCECRPKKDRTKPENHCEPCSERRKHLFVQDPQTCKCSCKNTDSRCKARQLELNERTCRCDKPRR

- Kd [1]: 20 pM
- Kd [2]: 1160 pM
B2: hVEGF (ligand)
chain: APMAEGGGQNHHEVVKFMDVYQRSYCHPIETLVDIFQEYPDEIEYIFKPSCVPLMRCGGCCNDEGLECVPTEESNITMQIMRIKPHQGQHIGEMSFLQHNKCECRPKKDRARQENPCGPCSERRKHLFVQDPQTCKCSCKNTDSRCKARQLELNERTCRCDKPRR
